Test results reported in PMC4065332, “PEX14 binding to Arabidopsis PEX5 has differential effects on PTS1 and PTS2 cargo occupancy of the receptor” (Febs Letters, 2014).
One block for each binder: values may come before it. Where no end group is shown, it is not given here. lissamine = lissamine: fluorescent label (lissamine) on the peptide

What was measured:
Conditions in all cases: both partners purified
[1] = target: T1, PEX5 (340–728), termed PEX5C (Arabidopsis thaliana, UniProt Q9FMA3 340-728); assay: far-Western, overlay or dot blot; purified PEX5 constructs pipetted onto nitrocellulose, blocked in 3% BSA PBS-T, probed 1 h with peptide-HRP (200 nM) or PEX14N-HRP (50 nM), ECL; for unloading then incubated with PEX14N 0.2 μM 1 h and 2 μM 16 h at 4 °C
T1 construct: Arabidopsis PEX5 residues 340-728; holds six of the nine W-X3-F/Y motifs and the TPR domain; lacks residues 314-334; also called His6-PEX5C; AtPEX5C; source: E. coli, purified via IMAC
T1 sequence (looked up): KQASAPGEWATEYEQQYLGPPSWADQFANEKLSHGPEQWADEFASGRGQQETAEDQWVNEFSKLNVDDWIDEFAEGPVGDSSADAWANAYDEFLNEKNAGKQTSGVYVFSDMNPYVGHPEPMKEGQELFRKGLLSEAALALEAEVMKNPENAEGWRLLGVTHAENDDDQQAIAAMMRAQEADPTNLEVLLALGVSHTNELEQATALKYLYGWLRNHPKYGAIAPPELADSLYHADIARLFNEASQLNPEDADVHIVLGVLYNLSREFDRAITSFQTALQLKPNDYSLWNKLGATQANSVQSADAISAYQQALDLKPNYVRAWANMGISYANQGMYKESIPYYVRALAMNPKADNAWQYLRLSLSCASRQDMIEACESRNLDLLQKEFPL

[2] = target: T1, PEX5 (340–728), termed PEX5C; assay: fluorescence polarisation; fluorescence anisotropy; the same dilution series of PEX5C with lissamine-YQSKL (100 nM) after addition of PEX14N to a constant 1 μM; HEPES 20 mM, NaCl 150 mM, pH 7.5
[3] = target: T1, PEX5 (340–728), termed PEX5C; assay: fluorescence polarisation; fluorescence anisotropy; dilution series of PEX5C (1 μM–0.04 nM) with lissamine-YQSKL (100 nM); HEPES 20 mM, NaCl 150 mM, pH 7.5; fitted to a 1:1 binding model; without PEX14N

- binding result [1]: binds
B1: HRP–YQSKL (CGGGYQSKL coupled to HRP–maleimide) (peptide)
peptide: C(HRP‑maleimide)GGGYQSKL
notes: generic PTS1 cargo peptide; also called HRP-SKL; peptide-HRP; source: synthetic peptide, coupled to HRP-maleimide (Sigma)

- Kd [2]: 11.5 ± 3.4 nM
- Kd [3]: 8.6 ± 4 nM
B2: lissamine-YQSKL (peptide)
peptide: lissamine-YQSKL
notes: canonical PTS1 cargo peptide; The name puts the lissamine before the peptide; also called lissamine-PTS1; PTS1
